Target: the molecule itself
Experiment: cryo-EM structure; purified wild-type SLC30A1 at 5 mg/mL in 25 mM Tris pH 8.0, 150 mM NaCl, 0.002% LMNG, 0.0004% CHS; C2 symmetry imposed; homodimer

B1: full-length human SLC30A1 protein (natural protein, UniProt Q9Y6M5 1-507, looked up)
chain: MGCWGRNRGRLLCMLALTFMFMVLEVVVSRVTSSLAMLSDSFHMLSDVLALVVALVAERFARRTHATQKNTFGWIRAEVMGALVNAIFLTGLCFAILLEAIERFIEPHEMQQPLVVLGVGVAGLLVNVLGLCLFHHHSGFSQDSGHGHSHGGHGHGHGLPKGPRVKSTRPGSSDINVAPGEQGPDQEETNTLVANTSNSNGLKLDPADPENPRSGDTVEVQVNGNLVREPDHMELEEDRAGQLNMRGVFLHVLGDALGSVIVVVNALVFYFSWKGCSEGDFCVNPCFPDPCKAFVEIINSTHASVYEAGPCWVLYLDPTLCVVMVCILLYTTYPLLKESALILLQTVPKQIDIRNLIKELRNVEGVEEVHELHVWQLAGSRIIATAHIKCEDPTSYMEVAKTIKDVFHNHGIHATTIQPEFASVGSKSSVVPCELACRTQCALKQCCGTLPQAPSGKDAEKTPAVSISCLELSNNLEKKPRRTKAENIPAVVIEIKNMPNKQPESSL
notes: SLC30A1 (zinc transporter 1), human, full-length cDNA with codon optimization; Homodimer in the cryo-EM structure; the C291 residues of the two protomers form a disulfide bond; also called WT SLC30A1; wild-type SLC30A1; source: HEK293F, transfected (pEZT vector), purified (Strep-Tactin beads, Superose 6 gel filtration) in LMNG/CHS
  stoichiometry N: 2

From publication PMC11633486, “The Intestinal Transporter SLC30A1 Plays a Critical Role in Regulating Systemic Zinc Homeostasis” (Advanced Science, 2024)
